Results taken from paper PMC11187563, “The importance of tyrosines in multimers of cyclic RGD nonapeptides: towards αvβ6-integrin targeted radiotherapeutics” (RSC Medicinal Chemistry, 2024).
Where two headings read alike, the source gives them in different places.

How the values were obtained:
[1] = system: αvβ6-integrin expressing human lung adenocarcinoma cell line H2009 xenografts; experiment: Ex vivo biodistribution of 177Lu-labeled peptide tetramers in H2009 xenografted SCID mice; conditions: H2009 bearing SCID mice
Method in brief: (§1)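 SCID mice carried subcutaneous H2009 xenografts on the right shoulder. 177Lu-labeled conjugates were injected i.v., and ex vivo organ distribution was measured at two time points post-injection.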

[2] = as above; conditions: CB17 SCID, mouse, iv, total radioactivity; for tissue uptake at 1.5 h: 90 min p.i.; for tissue uptake at 72 h: 199 pmol, 3 d p.i.; for tissue uptake at 24 h: 154 pmol, 24 h p.i.
Method in brief: as §1

[3] = adrenals, H2009 bearing SCID mice, read-out: Adrenals %IA/g
[4] = blood, H2009 bearing SCID mice, read-out: Blood %IA/g
[5] = bone, H2009 bearing SCID mice, read-out: Bone %IA/g
[6] = heart (myocard), H2009 bearing SCID mice, read-out: Heart (myocard) %IA/g
[7] = kidneys, H2009 bearing SCID mice, read-out: Kidneys %IA/g
[8] = large intestine (empty), H2009 bearing SCID mice, read-out: Large intestine (empty) %IA/g
[9] = liver, H2009 bearing SCID mice, read-out: Liver %IA/g
[10] = lung, H2009 bearing SCID mice, read-out: Lung %IA/g
[11] = muscle, H2009 bearing SCID mice, read-out: Muscle %IA/g
[12] = pancreas, H2009 bearing SCID mice, read-out: Pancreas %IA/g
[13] = small intestine (empty), H2009 bearing SCID mice, read-out: Small intestine (empty) %IA/g

In the case of CC(C)C[C@@H]1NC(=O)[C@H](CC(=O)O)NC(=O)CNC(=O)[C@H](CCCNC(=N)N)NC(=O)[C@H](Cc2ccc(O)cc2)NC(=O)[C@H](CCCCNC(=O)CCc2cn(CCCNC(=O)CCP(=O)(O)CN3CCN(CP(=O)(O)CCC(=O)NCCCn4cc(CCC(=O)NCCCC[C@H]5C(=O)N[C@@H](Cc6ccc(O)cc6)C(=O)N[C@@H](CCCNC(=N)N)C(=O)NCC(=O)N[C@@H](CC(=O)O)C(=O)N[C@@H](CC(C)C)C(=O)N[C@@H](C)C(=O)N[C@@H](Cc6ccc(O)cc6)C(=O)N6CCC[C@@H]6C(=O)N5C)nn4)CCN(CP(=O)(O)CCC(=O)NCCCn4cc(CCC(=O)NCCCC[C@H]5C(=O)N[C@@H](Cc6ccc(O)cc6)C(=O)N[C@@H](CCCNC(=N)N)C(=O)NCC(=O)N[C@@H](CC(=O)O)C(=O)N[C@@H](CC(C)C)C(=O)N[C@@H](C)C(=O)N[C@@H](Cc6ccc(O)cc6)C(=O)N6CCC[C@@H]6C(=O)N5C)nn4)CCN(CP(=O)(O)CCC(=O)NCCCn4cc(CCC(=O)NCCCC[C@H]5C(=O)N[C@@H](Cc6ccc(O)cc6)C(=O)N[C@@H](CCCNC(=N)N)C(=O)NCC(=O)N[C@@H](CC(=O)O)C(=O)N[C@@H](CC(C)C)C(=O)N[C@@H](C)C(=O)N[C@@H](Cc6ccc(O)cc6)C(=O)N6CCC[C@@H]6C(=O)N5C)nn4)CC3)nn2)N(C)C(=O)[C@H]2CCCN2C(=O)[C@H](Cc2ccc(O)cc2)NC(=O)[C@H](C)NC1=O [Compound 177Lu-Y8, metal not drawn], the “tumor/organ ratio, Kidneys” value ([1]; 90 min p.i.) is reported as 0.0, the “tumor/organ ratio, Kidneys” value ([1]; 24 h p.i.) is reported as 0.0 and the “tumor/organ ratio, Kidneys” value ([1]; 3 d p.i.) is reported as 0.0. The tissue uptake at 1.5 h ([2]; H2009 tumor, 124 pmol, H2009 bearing SCID mice, read-out: Tumor H2009 %IA/g) was 5.89 %ID/g, the tissue uptake at 72 h ([2]; H2009 tumor, H2009 bearing SCID mice, read-out: Tumor H2009 %IA/g) was 1.67 %ID/g and the tissue uptake at 1.5 h ([2]; adrenals, 124 pmol, H2009 bearing SCID mice, read-out: Adrenals %IA/g) was 0.71 %ID/g. It also gave a tissue uptake at 24 h [2, 3] of 0.25 %ID/g, a tissue uptake at 72 h [2, 3] of 0.22 %ID/g and a tissue uptake at 1.5 h ([2]; adrenals, + 50 nmol non-labeled compound 10 min prior to activity, n = 2, read-out: Adrenals %IA/g, + 50 nmol cold) of 0.53 %ID/g. For the same compound, the tissue uptake at 1.5 h ([2]; blood, 124 pmol, H2009 bearing SCID mice, read-out: Blood %IA/g) was 2.54 %ID/g, the tissue uptake at 24 h [2, 4] was 0.04 %ID/g and the tissue uptake at 72 h [2, 4] was 0.03 %ID/g. For the same compound, the tissue uptake at 1.5 h ([2]; blood, + 50 nmol non-labeled compound 10 min prior to activity, n = 2, read-out: Blood %IA/g, + 50 nmol cold) was 1.06 %ID/g, the tissue uptake at 1.5 h ([2]; bone, 124 pmol, H2009 bearing SCID mice, read-out: Bone %IA/g) was 3.24 %ID/g and the tissue uptake at 24 h [2, 5] was 0.68 %ID/g. For the same compound, the tissue uptake at 72 h [2, 5] was 0.57 %ID/g, the tissue uptake at 1.5 h ([2]; bone, + 50 nmol non-labeled compound 10 min prior to activity, n = 2, read-out: Bone %IA/g, + 50 nmol cold) was 0.76 %ID/g and the tissue uptake at 1.5 h ([2]; heart (myocard), 124 pmol, H2009 bearing SCID mice, read-out: Heart (myocard) %IA/g) was 1.01 %ID/g. For the same compound, the tissue uptake at 24 h [2, 6] was 0.16 %ID/g, the tissue uptake at 72 h [2, 6] was 0.13 %ID/g and the tissue uptake at 1.5 h ([2]; heart (myocard), + 50 nmol non-labeled compound 10 min prior to activity, n = 2, read-out: Heart (myocard) %IA/g, + 50 nmol cold) was 0.64 %ID/g. It also gave a tissue uptake at 1.5 h ([2]; kidneys, 124 pmol, H2009 bearing SCID mice, read-out: Kidneys %IA/g) of 166 %ID/g, a tissue uptake at 24 h [2, 7] of 235 %ID/g and a tissue uptake at 72 h [2, 7] of 237 %ID/g. It also gave a tissue uptake at 1.5 h ([2]; kidneys, + 50 nmol non-labeled compound 10 min prior to activity, n = 2, read-out: Kidneys %IA/g, + 50 nmol cold) of 178 %ID/g, a tissue uptake at 1.5 h ([2]; large intestine (empty), 124 pmol, H2009 bearing SCID mice, read-out: Large intestine (empty) %IA/g) of 3.66 %ID/g and a tissue uptake at 24 h [2, 8] of 1.46 %ID/g. It also gave a tissue uptake at 72 h [2, 8] of 0.48 %ID/g, a tissue uptake at 1.5 h ([2]; large intestine (empty), + 50 nmol non-labeled compound 10 min prior to activity, n = 2, read-out: Large intestine (empty) %IA/g, + 50 nmol cold) of 0.89 %ID/g and a tissue uptake at 1.5 h ([2]; liver, 124 pmol, H2009 bearing SCID mice, read-out: Liver %IA/g) of 1.16 %ID/g. It also gave a tissue uptake at 24 h [2, 9] of 0.98 %ID/g, a tissue uptake at 72 h [2, 9] of 0.7 %ID/g and a tissue uptake at 1.5 h ([2]; liver, + 50 nmol non-labeled compound 10 min prior to activity, n = 2, read-out: Liver %IA/g, + 50 nmol cold) of 0.7 %ID/g. It also gave a tissue uptake at 1.5 h ([2]; lung, 124 pmol, H2009 bearing SCID mice, read-out: Lung %IA/g) of 5.63 %ID/g, a tissue uptake at 24 h [2, 10] of 1.2 %ID/g and a tissue uptake at 72 h [2, 10] of 0.73 %ID/g. For the same compound, the tissue uptake at 1.5 h ([2]; lung, + 50 nmol non-labeled compound 10 min prior to activity, n = 2, read-out: Lung %IA/g, + 50 nmol cold) was 3.39 %ID/g, the tissue uptake at 1.5 h ([2]; muscle, 124 pmol, H2009 bearing SCID mice, read-out: Muscle %IA/g) was 0.87 %ID/g and the tissue uptake at 24 h [2, 11] was 0.36 %ID/g. For the same compound, the tissue uptake at 72 h [2, 11] was 0.23 %ID/g, the tissue uptake at 1.5 h ([2]; muscle, + 50 nmol non-labeled compound 10 min prior to activity, n = 2, read-out: Muscle %IA/g, + 50 nmol cold) was 0.2 %ID/g and the tissue uptake at 1.5 h ([2]; pancreas, 124 pmol, H2009 bearing SCID mice, read-out: Pancreas %IA/g) was 0.42 %ID/g. For the same compound, the tissue uptake at 24 h [2, 12] was 0.14 %ID/g, the tissue uptake at 72 h [2, 12] was 0.12 %ID/g and the tissue uptake at 1.5 h ([2]; pancreas, + 50 nmol non-labeled compound 10 min prior to activity, n = 2, read-out: Pancreas %IA/g, + 50 nmol cold) was 0.19 %ID/g. The tissue uptake at 1.5 h ([2]; small intestine (empty), 124 pmol, H2009 bearing SCID mice, read-out: Small intestine (empty) %IA/g) was 3 %ID/g, the tissue uptake at 24 h [2, 13] was 1.03 %ID/g and the tissue uptake at 72 h [2, 13] was 0.16 %ID/g. It also gave a tissue uptake at 1.5 h ([2]; small intestine (empty), + 50 nmol non-labeled compound 10 min prior to activity, n = 2, read-out: Small intestine (empty) %IA/g, + 50 nmol cold) of 0.62 %ID/g.
